Experimental data: PMC9912261

Legend:
[1] = tested on: Lys1 (position 1, -----K-----); experiment: NMR; conditions: ambient (SI general details say 1H NMR spectra were recorded at ambient temperature); none stated; pH adjusted with HCl/NaOH; free small peptide derivative in solution
[2] = tested on: Lys1 (position 1, -----KG----); experiment: NMR; conditions: ambient (SI general details say 1H NMR spectra were recorded at ambient temperature); none stated; pH adjusted with HCl/NaOH; free small peptide derivative in solution

| Substance | pKa [1] | pKa [2] |
| --- | --- | --- |
| Ac-Lys-OH (N-alpha-acetyl-lysine) (synthetic) | approximately 10.8 |  |
| Ac-Lys-SH (N-acetyl-lysine thioacid) (synthetic) | approximately 10.8 |  |
| Ac-Lys-Gly-SH (N-acetyl-lysyl-glycine thioacid) (synthetic) |  | approximately 10.8 |
| Ac-Lys-CN (N-acetyl-lysine nitrile) (synthetic) | approximately 10.4 |  |
